# Results as given in publication PMC6423188, “HYNIC and DOMA conjugated radiolabeled bombesin analogs as receptor-targeted probes for scintigraphic detection of breast tumor” (EJNMMI Research, 2019).
# Key:
# [1] = tested on: MDA-MB-231 tumor-bearing mice; assay: In vivo biodistribution; set-up: species or system mouse; details: for Tumor uptake: MDA-MB-231 tumor; for Tumor uptake / Blood uptake / Heart uptake / Intestine uptake / Kidney uptake / Liver uptake / Lung uptake / Muscle uptake / Pancreas uptake / Spleen uptake / Stomach uptake / Urine + urinary bladder uptake: mean ± SD, n = 3
# Experimental: All animal experiments were done according to the CSIR-IICB Animal Ethics Committee’s rules and regulation. Forty-eight hours before tumor cell implantation, an immunosuppressive drug (cyclosporine-A) was given intraperitoneal (i.p) at a concentration of 30 mg/kg/day. After that, MDA-MB-231 cells (5 × 10^6) 0.2 mL were implanted subcutaneously into the left flanks of the hind leg of BALB/c mice. Thereafter, the same dose of cyclosporine was given i.p. daily up to 2 weeks. Two weeks after inoculation of the tumor cells, when tumors reached ~ 0.5 cm in mean diameter, the tumor-bearing mice were used for biodistribution and imaging studies. Animals were monitored daily and their weights were recorded. Control group of mice received only 0.9 wt% saline. After cell implantation, the growth rate of the breast tumor followed a satisfactory pattern of spheroid shape and tumors are palpable within 2 to 4 weeks. MDA-MB-231 cell implanted mice tumor models were used for biodistribution and planar imaging studies of these radiolabeled new bombesin analogs.
# In tissue biodistribution studies, tumor-bearing animals were divided into four groups and well hydrated for 1 h by intraperitoneal administration of saline (0.9%, 2 mL). Three animals per groups were used for biodistribution studies. After that, the radiolabeled new bombesin analogs (^99mTc-BN) were injected intravenously in each animal of each group consequently through the tail vein [24–27]. After 5, 30, 60, and 120 min intravenous administrations of radiolabeled analogs, the animals were sacrificed; blood, heart, lung, liver, kidney, stomach, intestine, spleen, pancreas, brain, muscle, and tumor were excised, weighed, and counted for radioactivity. The organ uptake was calculated as a percentage of the injected activity per gram of wet tissue (%IA/g). In order to evaluate whether binding of bombesin analogs to MDA-MB-231 cells in vivo is specific; blocking studies with ^99mTc-labeled bombesin analogs in tumor-bearing mice were carried out. Groups of three animals were injected 0.03 nmol of ^99mTc-labeled BN analogs (2 MBq) with 25 nmol of non-radiolabeled BN peptide. After 60 min and 120 min, mice were sacrificed and the organs were collected. Each organ was weighed and counted in a gamma counter along with activity standard and percentage of injected activity per gram (%IA/g) of tissue was calculated for each type of tissues. Counts were corrected for background radiation and physical decay of the radioactivity. The uptake was expressed in the percentage of injected activity per gram of each organ (%IA/g). Data were analyzed statistically by the t test, with the level of significance set at P < 0.05.
# physchem = format: physicochemical; details: pH 7.4
# Experimental: Lipophilicity of the HPLC-purified radiopeptide analogs was determined through octanol/water partition coefficients, determined at pH 7.4 by measuring the distribution of the HPLC purified radiolabeled peptides in 1-octanol and PBS. Then, 50 μL HPLC purified ^99mTc-BN1/^99mTc-BN2/^99mTc-BN3/^99mTc-BN4/^99mTc-BNS with 100 μCi of radiolabeled compound in PBS was added to a to a centrifuge tube containing 1 mL n-octanol and 1 mL PBS (0.025 M, pH 7.4). The tube was vortexed at room temperature for 2 min and they are centrifuged at 5000 rpm for 5 min to ensure complete separation of layers. Further, 100 μL of each phase was transferred into a separate pre-weighed vial and measured in the well γ-counter. The ratio of octanol layer counts to aqueous layer counts was expressed as the distribution coefficient (D, the appropriate descriptor for ionizable compounds) and logD was used for determination of lipophilicity. Counts per unit weight of the sample were calculated, and logD value as calculated as follows:
# log10D = log10 [(cpm in octanol – cpm in background) / (cpm in buffer – cpm in background)]
# in vitro = in vitro ADME; details: rat
# Experimental: An aliquot (100 μL) of ^99mTc-BN1/^99mTc-BN2/^99mTc-BN3/^99mTc-BN4/^99mTc-BNS was added to 1 mL of freshly collected rat serum in centrifuge tube. The mixture was then incubated at 37 °C for 1 h; the serum protein was precipitated by adding 1 mL trichloroacetic acid (10%, V/V). The supernatant and precipitate were separated by centrifugation at 3000 rpm for 5 min. Radioactivities of both the phases were measured separately. The above experimental procedure was repeated three times. The percentage of protein binding was determined as: Plasma protein binding % = (precipitate counts (CPM) / [precipitate counts (CPM) + plasma counts (CPM)]) × 100%.
# [2] = 60 min p.i., blocked with excess non-radiolabeled BN peptide
substance,measurement,setting,value
^99mTc-HYNIC-Asp-Asn-[Lys^11CHAla^13Nle^14]-BN(7-14)NH2 [99mTc-BN3],tumor/blood ratio,[1]; 5 min p.i.,2.37
same,tumor/kidney ratio,[1]; 5 min p.i.,0.64
same,tumor/muscle ratio,[1]; 5 min p.i.,2.56
same,Tumor uptake,"[1]; 5 min p.i., i.v.",1.28 ± 0.01 %IA/g
same,Blood uptake,"[1]; 5 min p.i., i.v.",0.54 ± 0.01 %IA/g
same,Heart uptake,"[1]; 5 min p.i., i.v.",0.91 ± 0.03 %IA/g
same,Intestine uptake,"[1]; 5 min p.i., i.v.",1.21 ± 0.06 %IA/g
same,Kidney uptake,"[1]; 5 min p.i., i.v.",1.97 ± 0.11 %IA/g
same,Liver uptake,"[1]; 5 min p.i., i.v.",0.44 ± 0.03 %IA/g
same,Lung uptake,"[1]; 5 min p.i., i.v.",0.87 ± 0.14 %IA/g
same,Muscle uptake,"[1]; 5 min p.i., i.v.",0.50 ± 0.01 %IA/g
same,Pancreas uptake,"[1]; 5 min p.i., i.v.",2.78 ± 0.11 %IA/g
same,Spleen uptake,"[1]; 5 min p.i., i.v.",0.54 ± 0.04 %IA/g
same,Stomach uptake,"[1]; 5 min p.i., i.v.",0.52 ± 0.02 %IA/g
same,Urine + urinary bladder uptake,"[1]; 5 min p.i., i.v.",0.61 ± 0.04 %IA/g
same,tumor/blood ratio,[1]; 30 min p.i.,3.47
same,tumor/kidney ratio,[1]; 30 min p.i.,0.76
same,tumor/muscle ratio,[1]; 30 min p.i.,9.83
same,Tumor uptake,"[1]; 30 min p.i., i.v.",2.95 ± 0.01 %IA/g
same,Blood uptake,"[1]; 30 min p.i., i.v.",0.85 ± 0.01 %IA/g
same,Heart uptake,"[1]; 30 min p.i., i.v.",0.77 ± 0.02 %IA/g
same,Intestine uptake,"[1]; 30 min p.i., i.v.",1.46 ± 0.05 %IA/g
same,Kidney uptake,"[1]; 30 min p.i., i.v.",3.88 ± 0.21 %IA/g
same,Liver uptake,"[1]; 30 min p.i., i.v.",0.23 ± 0.13 %IA/g
same,Lung uptake,"[1]; 30 min p.i., i.v.",0.62 ± 0.03 %IA/g
same,Muscle uptake,"[1]; 30 min p.i., i.v.",0.30 ± 0.02 %IA/g
same,Pancreas uptake,"[1]; 30 min p.i., i.v.",3.59 ± 0.03 %IA/g
same,Spleen uptake,"[1]; 30 min p.i., i.v.",0.46 ± 0.01 %IA/g
same,Stomach uptake,"[1]; 30 min p.i., i.v.",0.74 ± 0.04 %IA/g
same,Urine + urinary bladder uptake,"[1]; 30 min p.i., i.v.",2.80 ± 0.01 %IA/g
same,tumor/blood ratio,[1]; 60 min p.i.,5.71
same,tumor/kidney ratio,[1]; 60 min p.i.,0.85
same,tumor/muscle ratio,[1]; 60 min p.i.,10.38
same,Tumor uptake,[1]; [2],0.54 ± 0.20 %IA/g
same,Blood uptake,[1]; [2],0.30 ± 0.01 %IA/g
same,Heart uptake,[1]; [2],0.29 ± 0.11 %IA/g
same,Intestine uptake,[1]; [2],1.36 ± 0.23 %IA/g
same,Kidney uptake,[1]; [2],3.18 ± 0.20 %IA/g
same,Liver uptake,[1]; [2],0.20 ± 0.03 %IA/g
same,Lung uptake,[1]; [2],0.52 ± 0.02 %IA/g
same,Muscle uptake,[1]; [2],0.16 ± 0.21 %IA/g
same,Pancreas uptake,[1]; [2],0.92 ± 0.02 %IA/g
same,Spleen uptake,[1]; [2],0.33 ± 0.03 %IA/g
same,Stomach uptake,[1]; [2],0.37 ± 0.10 %IA/g
same,Urine + urinary bladder uptake,[1]; [2],3.52 ± 0.07 %IA/g
same,Tumor uptake,"[1]; 60 min p.i., i.v.",2.70 ± 0.02 %IA/g
same,Blood uptake,"[1]; 60 min p.i., i.v.",0.47 ± 0.04 %IA/g
same,Heart uptake,"[1]; 60 min p.i., i.v.",0.35 ± 0.02 %IA/g
same,Intestine uptake,"[1]; 60 min p.i., i.v.",1.85 ± 0.21 %IA/g
same,Kidney uptake,"[1]; 60 min p.i., i.v.",3.17 ± 0.17 %IA/g
same,Liver uptake,"[1]; 60 min p.i., i.v.",0.18 ± 0.12 %IA/g
same,Lung uptake,"[1]; 60 min p.i., i.v.",0.50 ± 0.02 %IA/g
same,Muscle uptake,"[1]; 60 min p.i., i.v.",0.26 ± 0.03 %IA/g
same,Pancreas uptake,"[1]; 60 min p.i., i.v.",2.11 ± 0.06 %IA/g
same,Spleen uptake,"[1]; 60 min p.i., i.v.",0.30 ± 0.01 %IA/g
same,Stomach uptake,"[1]; 60 min p.i., i.v.",0.66 ± 0.02 %IA/g
same,Urine + urinary bladder uptake,"[1]; 60 min p.i., i.v.",3.75 ± 0.11 %IA/g
same,tumor/blood ratio,[1]; 120 min p.i.,7.04
same,tumor/kidney ratio,[1]; 120 min p.i.,1.20
same,tumor/muscle ratio,[1]; 120 min p.i.,8.89
same,Tumor uptake,"[1]; 120 min p.i., i.v.",1.69 ± 0.03 %IA/g
same,Blood uptake,"[1]; 120 min p.i., i.v.",0.24 ± 0.01 %IA/g
same,Heart uptake,"[1]; 120 min p.i., i.v.",0.15 ± 0.04 %IA/g
same,Intestine uptake,"[1]; 120 min p.i., i.v.",0.70 ± 0.05 %IA/g
same,Kidney uptake,"[1]; 120 min p.i., i.v.",1.40 ± 0.13 %IA/g
same,Liver uptake,"[1]; 120 min p.i., i.v.",0.11 ± 0.03 %IA/g
same,Lung uptake,"[1]; 120 min p.i., i.v.",0.35 ± 0.11 %IA/g
same,Muscle uptake,"[1]; 120 min p.i., i.v.",0.19 ± 0.02 %IA/g
same,Pancreas uptake,"[1]; 120 min p.i., i.v.",1.22 ± 0.04 %IA/g
same,Spleen uptake,"[1]; 120 min p.i., i.v.",0.12 ± 0.02 %IA/g
same,Stomach uptake,"[1]; 120 min p.i., i.v.",0.25 ± 0.01 %IA/g
same,Urine + urinary bladder uptake,"[1]; 120 min p.i., i.v.",3.91 ± 0.22 %IA/g
same,logD,physchem,− 2.21 ± 0.13
same,Percentage of plasma protein binding,in vitro,26.00%
